# Experimental data from IntAct's records for PubMed 29892012.
# B1: Genetic suppressor element 1 (Homo sapiens), Q14687 (parent)
# chain: MKGMSHEPKSPSLGMLSTATRTTATVNPLTPSPLNGALVPSGSPATSSALSAQAAPSSSFAAALRKLAKQAEEPRGSSLSSESSPVSSPATNHSSPASTPKRVPMGPIIVPPGGHSVPSTPPVVTIAPTKTVNGVWRSESRQDAGSRSSSGGRERLIVEPPLPQEKAGGPAIPSHLLSTPYPFGLSPSSVVQDSRFPPLNLQRPVHHVVPPSTVTEDYLRSFRPYHTTDDLRMSSLPPLGLDPATAAAYYHPSYLAPHPFPHPAFRMDDSYCLSALRSPFYPIPTPGSLPPLHPSAMHLHLSGVRYPPELSHSSLAALHSERMSGLSAERLQMDEELRREREREREREREREADREREKEREREREKEREQEKEREREKERERELERQREQRAREKELLAAKALEPSFLPVAELHGLRGHATEERGKPSEQLTPTRAEKLKDAGLQAPKPVQHPLHPVPTPHHTVPSLISNHGIFSLPSSSAATALLIQRTNEEEKWLARQRRLRQEKEDRQSQVSEFRQQVLEQHLDMGRPPVPAEAEHRPESTTRPGPNRHEPGGRDPPQHFGGPPPLISPKPQLHAAPTALWNPVSLMDNTLETRRAESHSLHSHPAAFEPSRQAAVPLVKVERVFCPEKAEEGPRKREPAPLDKYQPPPPPPREGGSLEHQPFLPGPGPFLAELEKSTQTILGQQRASLPQAATFGELSGPLKPGSPYRPPVPRAPDPAYIYDEFLQQRRRLVSKLDLEERRRREAQEKGYYYDLDDSYDESDEEEVRAHLRCVAEQPPLKLDTSSEKLEFLQLFGLTTQQQKEELVAQKRRKRRRMLRERSPSPPTIQSKRQTPSPRLALSTRYSPDEMNNSPNFEEKKKFLTIFNLTHISAEKRKDKERLVEMLRAMKQKALSAAVADSLTNSPRDSPAVSLSEPATQQASLDVEKPVGVAASLSDIPKAAEPGKLEQVRPQELSRVQELAPASGEKARLSEAPGGKKSLSMLHYIRGAAPKDIPVPLSHSTNGKSKPWEPFVAEEFAHQFHESVLQSTQKALQKHKGSVAVLSAEQNHKVDTSVHYNIPELQSSSRAPPPQHNGQQEPPTARKGPPTQELDRDSEEEEEEDDEDGEDEEEVPKRKWQGIEAVFEAYQEHIEEQNLERQVLQTQCRRLEARHYSLSLTAEQLSHSVAELRSQKQKMVSERERLQAELDHLRKCLALPAMHWPRGYLKGYPR
# B2: Keratin, type I cuticular Ha8 (Homo sapiens), O76015 (parent)
# chain: MTSSYSSSSCPLGCTMAPGARNVSVSPIDIGCQPGAEANIAPMCLLANVAHANRVRVGSTPLGRPSLCLPPTCHTACPLPGTCHIPGNIGICGAYGENTLNGHEKETMQFLNDRLANYLEKVRQLEQENAELEATLLERSKCHESTVCPDYQSYFHTIEELQQKILCSKAENARLIVQIDNAKLAADDFRIKLESERSLRQLVEADKCGTQKLLDDATLAKADLEAQQESLKEEQLSLKSNHEQEVKILRSQLGEKLRIELDIEPTIDLNRVLGEMRAQYEAMLETNRQDVEQWFQAQSEGISLQDMSCSEELQCCQSEILELRCTVNALEVERQAQHTLKDCLQNSLCEAEDRFGTELAQMQSLISNVEEQLSEIRADLERQNQEYQVLLDVKTRLENEIATYRNLLESEDCKLPCNPCSTSPSCVTAPCAPRPSCGPCTTCGPTCGASTTGSRF
# partner: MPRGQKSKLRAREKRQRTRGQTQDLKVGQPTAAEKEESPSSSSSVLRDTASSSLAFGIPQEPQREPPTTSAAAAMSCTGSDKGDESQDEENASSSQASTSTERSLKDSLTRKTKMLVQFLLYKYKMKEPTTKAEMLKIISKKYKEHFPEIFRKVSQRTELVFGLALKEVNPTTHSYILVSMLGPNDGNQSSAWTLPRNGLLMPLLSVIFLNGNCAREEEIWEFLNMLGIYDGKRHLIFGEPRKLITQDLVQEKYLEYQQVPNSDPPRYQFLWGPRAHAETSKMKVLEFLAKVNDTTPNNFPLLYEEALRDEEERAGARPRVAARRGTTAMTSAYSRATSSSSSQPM
# B3: Protein VAC14 homolog (Homo sapiens), Q08AM6 (parent)
# chain: MNPEKDFAPLTPNIVRALNDKLYEKRKVAALEIEKLVREFVAQNNTVQIKHVIQTLSQEFALSQHPHSRKGGLIGLAACSIALGKDSGLYLKELIEPVLTCFNDADSRLRYYACEALYNIVKVARGAVLPHFNVLFDGLSKLAADPDPNVKSGSELLDRLLKDIVTESNKFDLVSFIPLLRERIYSNNQYARQFIISWILVLESVPDINLLDYLPEILDGLFQILGDNGKEIRKMCEVVLGEFLKEIKKNPSSVKFAEMANILVIHCQTTDDLIQLTAMCWMREFIQLAGRVMLPYSSGILTAVLPCLAYDDRKKSIKEVANVCNQSLMKLVTPEDDELDELRPGQRQAEPTPDDALPKQEGTASGGPDGSCDSSFSSGISVFTAASTERAPVTLHLDGIVQVLNCHLSDTAIGMMTRIAVLKWLYHLYIKTPRKMFRHTDSLFPILLQTLSDESDEVILKDLEVLAEIASSPAGQTDDPGPLDGPDLQASHSELQVPTPGRAGLLNTSGTKGLECSPSTPTMNSYFYKFMINLLKRFSSERKLLEVRGPFIIRQLCLLLNAENIFHSMADILLREEDLKFASTMVHALNTILLTSTELFQLRNQLKDLKTLESQNLFCCLYRSWCHNPVTTVSLCFLTQNYRHAYDLIQKFGDLEVTVDFLAEVDKLVQLIECPIFTYLRLQLLDVKNNPYLIKALYGLLMLLPQSSAFQLLSHRLQCVPNPELLQTEDSLKAAPKSQKADSPSIDYAELLQHFEKVQNKHLEVRHQRSGRGDHLDRRVVL
# partner: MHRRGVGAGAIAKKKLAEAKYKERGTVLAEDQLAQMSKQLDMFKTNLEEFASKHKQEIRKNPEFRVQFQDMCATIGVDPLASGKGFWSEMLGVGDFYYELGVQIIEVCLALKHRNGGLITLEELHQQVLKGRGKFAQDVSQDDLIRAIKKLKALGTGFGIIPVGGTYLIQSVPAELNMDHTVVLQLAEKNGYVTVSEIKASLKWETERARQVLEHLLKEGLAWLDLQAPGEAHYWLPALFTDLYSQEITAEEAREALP
# B4: Ligand of Numb protein X 2 (Homo sapiens), Q8N448 (parent)
# chain: MGTTSDEMVSVEQTSSSSLNPLCFECGQQHWTRENHLYNYQNEVDDDLVCHICLQPLLQPLDTPCGHTFCYKCLRNFLQEKDFCPLDRKRLHFKLCKKSSILVHKLLDKLLVLCPFSSVCKDVMQRCDLEAHLKNRCPGASHRRVALERRKTSRTQAEIENENGPTLLDPAGTLSPEADCLGTGAVPVERHLTSASLSTWSEEPGLDNPAFEESAGADTTQQPLSLPEGEITTIEIHRSNPYIQLGISIVGGNETPLINIVIQEVYRDGVIARDGRLLAGDQILQVNNYNISNVSHNYARAVLSQPCNTLHLTVLRERRFGNRAHNHSDSNSPREEIFQVALHKRDSGEQLGIKLVRRTDEPGVFILDLLEGGLAAQDGRLSSNDRVLAINGHDLKYGTPELAAQIIQASGERVNLTIARPGKPQPGNTIREAGNHSSSSQHHTPPPYYSRPSSHKDLTQCVTCQEKHITVKKEPHESLGMTVAGGRGSKSGELPIFVTSVPPHGCLARDGRIKRGDVLLNINGIDLTNLSHSEAVAMLKASAASPAVALKALEVQIVEEATQNAEEQPSTFSENEYDASWSPSWVMWLGLPSTLHSCHDIVLRRSYLGSWGFSIVGGYEENHTNQPFFIKTIVLGTPAYYDGRLKCGDMIVAVNGLSTVGMSHSALVPMLKEQRNKVTLTVICWPGSLV
# partner: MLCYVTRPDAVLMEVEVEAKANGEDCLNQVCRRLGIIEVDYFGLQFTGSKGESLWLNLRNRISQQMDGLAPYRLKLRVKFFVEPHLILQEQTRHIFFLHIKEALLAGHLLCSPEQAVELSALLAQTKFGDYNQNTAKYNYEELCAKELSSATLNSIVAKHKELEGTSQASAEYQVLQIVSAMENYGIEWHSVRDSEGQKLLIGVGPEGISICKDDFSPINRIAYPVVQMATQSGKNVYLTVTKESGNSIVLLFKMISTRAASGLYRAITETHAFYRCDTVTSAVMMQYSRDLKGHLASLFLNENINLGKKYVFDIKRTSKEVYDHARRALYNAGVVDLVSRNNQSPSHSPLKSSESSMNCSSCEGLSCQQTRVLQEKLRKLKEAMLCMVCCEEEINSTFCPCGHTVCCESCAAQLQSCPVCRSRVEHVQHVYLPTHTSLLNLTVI
# B5: Casein kinase II subunit alpha (Homo sapiens), P68400 (parent)
# chain: MSGPVPSRARVYTDVNTHRPREYWDYESHVVEWGNQDDYQLVRKLGRGKYSEVFEAINITNNEKVVVKILKPVKKKKIKREIKILENLRGGPNIITLADIVKDPVSRTPALVFEHVNNTDFKQLYQTLTDYDIRFYMYEILKALDYCHSMGIMHRDVKPHNVMIDHEHRKLRLIDWGLAEFYHPGQEYNVRVASRYFKGPELLVDYQMYDYSLDMWSLGCMLASMIFRKEPFFHGHDNYDQLVRIAKVLGTEDLYDYIDKYNIELDPRFNDILGRHSRKRWERFVHSENQHLVSPEALDFLDKLLRYDHQSRLTAREAMEHPYFYTVVKDQARMGSSSMPGGSTPVSSANMMSGISSVPTPSPLGPLAGSPVIAAANPLGMPVPAAAGAQQ
# partner: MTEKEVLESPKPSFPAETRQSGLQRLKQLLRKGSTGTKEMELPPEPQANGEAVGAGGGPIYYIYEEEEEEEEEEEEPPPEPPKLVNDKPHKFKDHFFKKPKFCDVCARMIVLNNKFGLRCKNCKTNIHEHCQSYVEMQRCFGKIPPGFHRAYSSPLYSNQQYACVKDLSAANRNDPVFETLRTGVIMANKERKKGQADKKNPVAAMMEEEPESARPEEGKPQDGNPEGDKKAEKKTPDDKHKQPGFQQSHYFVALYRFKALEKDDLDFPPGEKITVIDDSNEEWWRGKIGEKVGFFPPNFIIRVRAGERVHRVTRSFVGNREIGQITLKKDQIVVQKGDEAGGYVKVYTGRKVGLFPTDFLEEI
# B6: Ligand of Numb protein X 2 (Homo sapiens), Q8N448 (parent)
# chain: B4 chain
# partner: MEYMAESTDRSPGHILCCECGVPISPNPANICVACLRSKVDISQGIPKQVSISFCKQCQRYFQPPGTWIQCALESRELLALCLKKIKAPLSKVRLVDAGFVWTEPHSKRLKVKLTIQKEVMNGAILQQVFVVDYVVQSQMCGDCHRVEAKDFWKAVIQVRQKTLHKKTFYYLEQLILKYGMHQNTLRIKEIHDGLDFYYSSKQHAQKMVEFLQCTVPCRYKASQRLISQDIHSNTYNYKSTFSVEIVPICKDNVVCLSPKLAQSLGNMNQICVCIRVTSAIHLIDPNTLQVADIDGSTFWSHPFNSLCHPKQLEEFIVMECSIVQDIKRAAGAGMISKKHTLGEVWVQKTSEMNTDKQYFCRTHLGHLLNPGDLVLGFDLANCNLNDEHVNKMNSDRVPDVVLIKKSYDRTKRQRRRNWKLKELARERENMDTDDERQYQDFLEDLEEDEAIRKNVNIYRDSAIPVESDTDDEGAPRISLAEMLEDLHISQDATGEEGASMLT
# Variants of: B1
# Details: with rbpms_human RBPMS
row,Variant,effect of a mutation on the interaction
1,R503Q,with no effect

# Variants of: B1
# Details: with rcor3_human RCOR3, Q9P2K3
row,Variant,effect of a mutation on the interaction
1,R503Q,with no effect

# Variants of: B1
# Details: with rbpms_human RBPMS
# Remark: another data set of the same source
row,Variant,effect of a mutation on the interaction
1,E368K,with no effect

# Variants of: B1
# Details: with rcor3_human RCOR3, Q9P2K3
# Remark: another data set of the same source
row,Variant,effect of a mutation on the interaction
1,E368K,with no effect

# Variants of: B2
# Details: with magb4_human MAGEB4, O15481
row,Variant,effect of a mutation on the interaction
1,N270K,with no effect

# Variants of: B2
# Details: with magb4_human MAGEB4, O15481
# Remark: another data set of the same source
row,Variant,effect of a mutation on the interaction
1,D306A,with no effect

# Variants of: B3
# Details: with snf8_human SNF8, Q96H20
row,Variant,effect of a mutation on the interaction
1,A127S,with no effect

# Variants of: B4
# Details: with mylip_human MYLIP
row,Variant,effect of a mutation on the interaction
1,P669A,with no effect

# Variants of: B5
# Details: with stac3_human STAC3, Q96MF2
row,Variant,effect of a mutation on the interaction
1,K198R,with no effect

# Variants of: B6
# Details: with nmd3_human NMD3, Q96D46
row,Variant,effect of a mutation on the interaction
1,P669A,with no effect
